Laboratory results from publication PMC6521718 (Molecular cell, 2018).
Numbering of substitutions follows the chain as printed. Like-named read-outs stand apart in the source and are kept apart here.

T1: Csy complex (type I-F, wild type) (Pseudomonas aeruginosa PA14, UniProt Q02ML9;Q02MM0;Q02MM1;Q02MM2 1-434;1-327;1-342;1-187)
T1 sequence 1: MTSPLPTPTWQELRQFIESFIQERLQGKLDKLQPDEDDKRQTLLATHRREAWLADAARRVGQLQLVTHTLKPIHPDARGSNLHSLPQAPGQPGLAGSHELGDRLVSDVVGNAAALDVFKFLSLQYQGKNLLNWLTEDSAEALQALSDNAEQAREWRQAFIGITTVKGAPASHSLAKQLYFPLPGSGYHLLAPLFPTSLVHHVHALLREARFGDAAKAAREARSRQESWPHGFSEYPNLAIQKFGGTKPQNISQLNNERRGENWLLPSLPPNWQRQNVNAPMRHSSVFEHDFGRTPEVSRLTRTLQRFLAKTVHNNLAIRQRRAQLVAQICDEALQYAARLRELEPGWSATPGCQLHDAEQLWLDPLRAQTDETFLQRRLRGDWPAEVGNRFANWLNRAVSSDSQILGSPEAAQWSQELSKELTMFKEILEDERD
T1 sequence 2: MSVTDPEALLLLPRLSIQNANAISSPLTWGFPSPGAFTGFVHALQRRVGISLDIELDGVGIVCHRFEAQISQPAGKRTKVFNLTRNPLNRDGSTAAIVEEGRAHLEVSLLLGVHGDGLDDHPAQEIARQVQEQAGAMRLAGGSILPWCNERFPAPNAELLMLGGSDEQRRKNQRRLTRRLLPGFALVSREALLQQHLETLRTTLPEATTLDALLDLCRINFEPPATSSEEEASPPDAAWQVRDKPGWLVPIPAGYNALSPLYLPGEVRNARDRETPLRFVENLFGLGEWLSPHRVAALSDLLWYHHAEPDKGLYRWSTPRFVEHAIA
T1 sequence 3: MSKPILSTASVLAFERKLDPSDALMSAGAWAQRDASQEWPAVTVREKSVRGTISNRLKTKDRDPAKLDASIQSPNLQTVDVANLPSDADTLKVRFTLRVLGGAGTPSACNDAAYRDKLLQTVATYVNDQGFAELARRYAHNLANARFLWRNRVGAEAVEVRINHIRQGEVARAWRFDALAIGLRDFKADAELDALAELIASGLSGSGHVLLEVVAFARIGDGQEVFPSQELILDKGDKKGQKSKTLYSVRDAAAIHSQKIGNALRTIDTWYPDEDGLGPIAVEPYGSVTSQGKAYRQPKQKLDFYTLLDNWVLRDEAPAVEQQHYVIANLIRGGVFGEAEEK
T1 sequence 4: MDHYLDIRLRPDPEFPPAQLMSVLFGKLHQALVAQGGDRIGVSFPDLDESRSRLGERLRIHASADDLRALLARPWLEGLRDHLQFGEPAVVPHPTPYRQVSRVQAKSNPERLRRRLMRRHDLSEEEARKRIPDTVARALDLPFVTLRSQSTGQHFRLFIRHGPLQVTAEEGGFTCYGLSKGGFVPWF

T2: Csy complex Cas8f N250A (Pseudomonas aeruginosa PA14, UniProt Q02ML9;Q02MM0;Q02MM1;Q02MM2 1-434;1-327;1-342;1-187, N250A)
T2 sequence 1: T1 sequence 1 with N250A
T2 sequence 2: T1 sequence 2
T2 sequence 3: T1 sequence 3
T2 sequence 4: T1 sequence 4

T3: Csy complex Cas8f RBC mutant (Pseudomonas aeruginosa PA14, UniProt Q02ML9;Q02MM0;Q02MM1;Q02MM2 1-434;1-327;1-342;1-187, R282E;H283D;R299E;R302E)
T3 sequence 1: T1 sequence 1 with R282E, H283D, R299E, R302E
T3 sequence 2: T1 sequence 2
T3 sequence 3: T1 sequence 3
T3 sequence 4: T1 sequence 4

B1: 80-bp dsDNA target, GG PAM (dsDNA)
DNA 1: GCTGTACGTCACTATCGAAGCAATACAGGTAGACGCGGACATCAAGCCCGCCGTGAAGGTGCAGCTTCTCTACAGAGTGC
DNA 2: GCACTCTGTAGAGAAGCTGCACCTTCACGGCGGGCTTGATGTCCGCGTCTACCTGTATTGCTTCGATAGTGACGTACAGC
B2: 80-bp target, AA PAM, bubble +1 to +10 (dsDNA)
DNA 1: B1 DNA 1 with G58A, G59A
DNA 2: GCACTCTGTAGAGAAGCTGCATTAAGTGCCGCCGCTTGATGTCCGCGTCTACCTGTATTGCTTCGATAGTGACGTACAGC
B3: 80-bp target, CC PAM, bubble +1 to +10 (dsDNA)
DNA 1: B1 DNA 1 with G58C, G59C
DNA 2: B2 DNA 2 with T22G, T23G
B4: 80-bp target, GG PAM, bubble +1 to +10 (dsDNA)
DNA 1: B1 DNA 1
DNA 2: B2 DNA 2 with T22C, T23C
B5: 80-bp target, TT PAM, bubble +1 to +10 (dsDNA)
DNA 1: B1 DNA 1 with G58T, G59T
DNA 2: B2 DNA 2 with T22A, T23A
B6: Cas7f, backbone subunit of the Csy complex (natural protein, Pseudomonas aeruginosa (strain PA14))
chain: T1 sequence 3

How the values were obtained:
[1] = biological target: T1, Csy complex (type I-F, wild type); test: cryo-EM
Csy complex Cas8f N250A = biological target: T2, Csy complex Cas8f N250A; test: EMSA
[2] = biological target: T4, Csy complex (type I-F, wild type);Cas1-2/3 complex (Pseudomonas aeruginosa PA14;Pseudomonas …, UniProt Q02ML9;Q02MM0;Q02MM1;Q02MM2;Q02ML7;Q02ML8 1-434;1-327;1-342;1-187;1-324;1-1076, |); test: EMSA
[3] = biological target: T4, Csy complex (type I-F, wild …); test: EMSA; remark: listed apart in the source
[4] = biological target: T1, Csy complex (type I-F, wild type); test: EMSA
[5] = biological target: T3, Csy complex Cas8f RBC mutant; test: EMSA
cryo-EM structure = biological target: the molecule itself; test: cryo-EM structure

T4 sequence (Q02ML7 whole entry, chain 5 of 2): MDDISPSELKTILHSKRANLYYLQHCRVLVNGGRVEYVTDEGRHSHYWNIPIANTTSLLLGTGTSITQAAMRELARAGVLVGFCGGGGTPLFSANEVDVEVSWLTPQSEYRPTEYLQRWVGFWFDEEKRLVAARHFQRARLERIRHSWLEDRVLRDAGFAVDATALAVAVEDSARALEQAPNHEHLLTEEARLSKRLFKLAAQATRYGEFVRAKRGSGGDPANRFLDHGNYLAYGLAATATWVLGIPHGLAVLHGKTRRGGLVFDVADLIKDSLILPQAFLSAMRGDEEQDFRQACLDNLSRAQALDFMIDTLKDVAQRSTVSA
T4 sequence (Q02ML8 whole entry, chain 6 of 2): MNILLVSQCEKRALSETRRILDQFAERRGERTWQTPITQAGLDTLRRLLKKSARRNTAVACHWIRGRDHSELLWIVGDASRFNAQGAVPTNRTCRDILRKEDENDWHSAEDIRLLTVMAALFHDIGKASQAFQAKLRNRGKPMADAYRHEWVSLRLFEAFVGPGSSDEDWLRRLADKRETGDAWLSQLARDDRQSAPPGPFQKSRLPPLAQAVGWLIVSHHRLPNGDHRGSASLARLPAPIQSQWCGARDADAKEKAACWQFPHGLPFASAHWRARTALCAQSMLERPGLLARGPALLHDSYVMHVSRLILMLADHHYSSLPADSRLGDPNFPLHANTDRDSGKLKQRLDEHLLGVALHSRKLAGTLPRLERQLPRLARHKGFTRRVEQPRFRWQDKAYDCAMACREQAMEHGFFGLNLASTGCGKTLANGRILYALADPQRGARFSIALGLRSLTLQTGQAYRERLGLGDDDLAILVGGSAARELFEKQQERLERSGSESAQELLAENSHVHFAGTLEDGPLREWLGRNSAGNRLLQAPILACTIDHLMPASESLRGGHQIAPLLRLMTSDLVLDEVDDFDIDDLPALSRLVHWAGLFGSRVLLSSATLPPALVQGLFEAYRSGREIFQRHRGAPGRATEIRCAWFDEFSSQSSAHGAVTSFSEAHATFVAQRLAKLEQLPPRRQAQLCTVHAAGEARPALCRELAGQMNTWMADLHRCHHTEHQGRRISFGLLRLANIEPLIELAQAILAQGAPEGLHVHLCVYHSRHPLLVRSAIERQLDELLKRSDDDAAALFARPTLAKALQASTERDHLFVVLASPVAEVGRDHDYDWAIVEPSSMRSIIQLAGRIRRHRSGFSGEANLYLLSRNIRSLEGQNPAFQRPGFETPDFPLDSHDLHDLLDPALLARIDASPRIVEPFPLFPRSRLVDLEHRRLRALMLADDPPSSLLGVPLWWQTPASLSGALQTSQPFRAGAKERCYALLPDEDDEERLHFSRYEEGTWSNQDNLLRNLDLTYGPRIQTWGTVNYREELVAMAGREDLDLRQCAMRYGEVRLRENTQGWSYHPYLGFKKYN

Binder	binding result [3]	binding result [4]	further results
B1			binding result [1]: binds; binding signal (Csy complex Cas8f N250A): > 1000 fold decrease in affinity vs WT; binding result [2]: binds
B2	binds	binds	
B3	binds	binds	
B4			binding result [5]: binds
B5	binds	binds	
B6			binding result (cryo-EM structure): binds
